Among the data in patent publication US20120231000A1 are fold difference in affinity as compared to humVEGF1-165 values, retold here.

The target of this assay is Avastin™ (Bevacizumab). Nature of the assay: competition ELISA, inhibition of Avastin binding to coated humVEGF1-165. In general terms: ELISA stands for enzyme-linked immunosorbent assay.

B1: oxid-humVEGF26-104 (designed binder)
chain: CHPIETLVDIFQEYPDEIEYIFKPSAVPLMRCGGACNDEGLECVPTEESNITMQIMRIKPHQGQHIGEMSFLQHNKCEC
modifications: N-terminal acetyl; C-terminal amide; oxidatively folded cystine knot (three disulfide bonds C1-C4, C2-C5, C3-C6)
On to B1, for which the fold difference in affinity as compared to humVEGF1-165 is under 5 fold.
